# The supplement of paper PMC11246515
# ± gives the standard deviation of the averaged measurements.
# Experiment: total protein half-life in vivo (active degradation + dilution); higher = more stable protein
# [1] = E. coli NCM3722 delta-clpP delta-lon delta-hslV, growth: N-lim chemostat, doubling time 6 h
# [2] = E. coli NCM3722 delta-clpP, growth: N-lim chemostat, doubling time 6 h
# [3] = E. coli NCM3722 delta-hslV, growth: N-lim chemostat, doubling time 6 h
# [4] = E. coli NCM3722 delta-lon, growth: N-lim chemostat, doubling time 6 h
# [5] = E. coli NCM3722 delta-smpB, growth: N-lim chemostat, doubling time 6 h
# [6] = wild type E. coli NCM3722, growth: C-lim chemostat, doubling time 3 h
# [7] = wild type E. coli NCM3722, growth: C-lim chemostat, doubling time 12 h
# [8] = wild type E. coli NCM3722, growth: N-lim chemostat, doubling time 6 h
# [9] = wild type E. coli NCM3722, growth: N-lim chemostat, doubling time 12 h
# [10] = wild type E. coli NCM3722, growth: P-lim chemostat, doubling time 6 h
# [11] = wild type E. coli NCM3722, growth: P-lim chemostat, doubling time 12 h
# [12] = wild type E. coli NCM3722, growth: C-lim chemostat, doubling time 6 h
sequence,measurement,setting,value
MTYQQAGRIAVLKRILGWVIFIPALISTLISLLKFMNTRQENKEGINAVMLDFTHVMIDMMQANTPFLNLFWYNSPTPNFNGGVNVMFWVIFILIFVGLALQDSGARMSRQARFLREGVEDQLILEKAKGEEGLTREQIESRIVVPHHTIFLQFFSLYILPVICIAAGYVFFSLLGFI,total protein half-life in vivo,[1],5.41 ± 0.081 h
same,total protein half-life in vivo,[2],5.2 ± 0.35 h
same,total protein half-life in vivo,[3],5.42 ± 0.091 h
same,total protein half-life in vivo,[4],5.94 h
same,total protein half-life in vivo,[5],6.11 ± 1.1 h
same,total protein half-life in vivo,[6],2.86 ± 0.074 h
same,total protein half-life in vivo,[7],13.5 ± 0.8 h
same,total protein half-life in vivo,[8],5.62 ± 0.27 h
same,total protein half-life in vivo,[9],9.96 ± 2.3 h
same,total protein half-life in vivo,[10],5.46 ± 0.11 h
same,total protein half-life in vivo,[11],12 ± 0.18 h
MTVRILAVCGNGQGSSMIMKMKVDQFLTQSNIDHTVNSCAVGEYKSELSGADIIIASTHIAGEITVTGNKYVVGVRNMLSPADFGPKLLEVIKEHFPQDVK,total protein half-life in vivo,[1],> 8 h
same,total protein half-life in vivo,[2],5.3 h
same,total protein half-life in vivo,[3],6.08 ± 2.4 h
same,total protein half-life in vivo,[5],3.21 h
same,total protein half-life in vivo,[6],2.24 h
same,total protein half-life in vivo,[12],3.71 h
same,total protein half-life in vivo,[7],4.74 ± 0.78 h
same,total protein half-life in vivo,[10],5.12 ± 1.8 h
same,total protein half-life in vivo,[11],9.81 h
MPQQNYLDELTPAFTSLLAIKEASRCLLCHDAPCSQACPAQTDPGKFIRSIYFRNFKGAAETIRENNALGAVCARVCPTEKLCQSGCTRAGVDAPIDIGRLQRFVTDFEQQTGMEIYQPGTKTLGKVAIIGAGPAGLQASVTLTNQGYDVTIYEKEAHPGGWLRNGIPQFRLPQSVLDAEIARIEKMGVTIKCNNEVGNTLTLEQLKAENRAVLVTVGLSSGSGLPLFEHSDVEIAVDFLQRARQAQGDISIPQSALIIGGGDVAMDVASTLKVLGCQAVTCVAREELDEFPASEKEFTSARELGVSIIDGFTPVAVEGNKVTFKHVRLSGELTMAADKIILAVGQHARLDAFAELEPQRNTIKTQNYQTRDPQVFAAGDIVEGDKTVVYAVKTGKEAAEAIHHYLEGACSC,total protein half-life in vivo,[1],> 8 h
same,total protein half-life in vivo,[6],1.14 ± 0.029 h
same,total protein half-life in vivo,[12],1.42 ± 0.22 h
same,total protein half-life in vivo,[7],2.52 ± 1.1 h
MSRSQNLRHNVINQVIDDMARGHIPSPLPSQSALAEMYNISRTTVRHILSHLRECGVLTQVGNDYVIARKPDHDDGFACTTASMSEQNKVFEQAFFTMINQRQLRPGETFSELQLARAAGVSPVVVREYLLKFGRYNLIHSEKRGQWSMKQFDQSYAEQLFELREMLETHSLQHFLNLPDHDPRWLQAKTMLERHRLLRDNIGNSFRMFSQLDRDFHSLLLSAADNIFFDQSLEIISVIFHFHYQWDESDLKQRNIIAVDEHMTILSALICRSDLDATLALRNHLNSAKQSMIRSINENTRYAH,total protein half-life in vivo,[6],0.713 h
same,total protein half-life in vivo,[12],1.15 h
MSTQYETQGYTINNAGRRLVVDPITRIEGHMRCEVNINDQNVITNAVSCGTMFRGLEIILQGRDPRDAWAFVERICGVCTGVHALASVYAIEDAIGIKVPDNANIIRNIMLATLWCHDHLVHFYQLAGMDWIDVLDALKADPRKTSELAQSLSSWPKSSPGYFFDVQNRLKKFVEGGQLGIFRNGYWGHPQYKLPPEANLMGFAHYLEALDFQREIVKIHAVFGGKNPHPNWIVGGMPCAINIDESGAVGAVNMERLNLVQSIITRTADFINNVMIPDALAIGQFNKPWSEIGTGLSDKCVLSYGAFPDIANDFGEKSLLMPGGAVINGDFNNVLPVDLVDPQQVQEFVDHAWYRYPNDQVGRHPFDGITDPWYNPGDVKGSDTNIQQLNEQERYSWIKAPRWRGNAMEVGPLARTLIAYHKGDAATVESVDRMMSALNLPLSGIQSTLGRILCRAHEAQWAAGKLQYFFDKLMTNLKNGNLATASTEKWEPATWPTECRGVGFTEAPRGALGHWAAIRDGKIDLYQCVVPTTWNASPRDPKGQIGAYEAALMNTKMAIPEQPLEILRTLHSFDPCLACSTHVLGDDGSELISVQVR [P0ACD8],total protein half-life in vivo,[1],4.51 ± 0.84 h
MKSEVLSVKEKIGYGMGDAASHIIFDNVMLYMMFFYTDIFGIPAGFVGTMFLVARALDAISDPCMGLLADRTRSRWGKFRPWVLFGALPFGIVCVLAYSTPDLSMNGKMIYAAITYTLLTLLYTVVNIPYCALGGVITNDPTQRISLQSWRFVLATAGGMLSTVLMMPLVNLIGGDNKPLGFQGGIAVLSVVAFMMLAFCFFTTKERVEAPPTTTSMREDLRDIWQNDQWRIVGLLTIFNILAVCVRGGAMMYYVTWILGTPEVFVAFLTTYCVGNLIGSALAKPLTDWKCKVTIFWWTNALLAVISLAMFFVPMQASITMFVFIFVIGVLHQLVTPIQWVMMSDTVDYGEWCNGKRLTGISFAGTLFVLKLGLAFGGALIGWMLAYGGYDAAEKAQNSATISIIIALFTIVPAICYLLSAIIAKRYYSLTTHNLKTVMEQLAQGKRRCQQQFTSQEVQN,total protein half-life in vivo,[1],3.79 ± 0.88 h
same,total protein half-life in vivo,[2],2.71 ± 0.12 h
same,total protein half-life in vivo,[3],2.34 ± 0.037 h
same,total protein half-life in vivo,[4],2.68 h
same,total protein half-life in vivo,[6],2.83 ± 0.12 h
same,total protein half-life in vivo,[12],4.26 ± 0.11 h
same,total protein half-life in vivo,[7],8.19 ± 1.7 h
same,total protein half-life in vivo,[8],2.823 ± 0.011 h
same,total protein half-life in vivo,[9],4.72 h
same,total protein half-life in vivo,[10],5.34 ± 0.062 h
same,total protein half-life in vivo,[11],9.79 ± 1.1 h
MNAVTVNDDGLVLRLYIQPKASRDSIVGLHGDEVKVAITAPPVDGQANSHLVKFLGKQFRVAKSQVVIEKGELGRHKQIKIINPQQIPPEIAALIN,total protein half-life in vivo,[1],5.38 ± 0.38 h
same,total protein half-life in vivo,[2],4 ± 0.27 h
same,total protein half-life in vivo,[3],4.49 h
same,total protein half-life in vivo,[4],5.14 h
same,total protein half-life in vivo,[5],4.22 h
same,total protein half-life in vivo,[6],2.88 ± 0.76 h
same,total protein half-life in vivo,[12],5.35 h
same,total protein half-life in vivo,[7],8.02 h
same,total protein half-life in vivo,[8],3.58 h
same,total protein half-life in vivo,[9],6.29 ± 0.45 h
same,total protein half-life in vivo,[10],4.68 ± 0.4 h
same,total protein half-life in vivo,[11],8.89 ± 0.44 h
MFSGLLIILVPLIVGYLIPLRQQAALKVINQLLSWMVYLILFFMGISLAFLDNLASNLLAILHYSAVSITVILLCNIAALMWLERGLPWRNHHQQEKLPSRIAMALESLKLCGVVVIGFAIGLSGLAFLQHATEASEYTLILLLFLVGIQLRNNGMTLKQIVLNRRGMIVAVVVVVSSLIGGLINAFILDLPINTALAMASGFGWYSLSGILLTESFGPVIGSAAFFNDLARELIAIMLIPGLIRRSRSTALGLCGATSMDFTLPVLQRTGGLDMVPAAIVHGFILSLLVPILIAFFSA,total protein half-life in vivo,[12],3.12 h
same,total protein half-life in vivo,[9],8.87 h
same,total protein half-life in vivo,[11],8.67 ± 0.3 h
MRRILSVLLENESGALSRVIGLFSQRGYNIESLTVAPTDDPTLSRMTIQTVGDEKVLEQIEKQLHKLVDVLRVSELGQGAHVEREIMLVKIQASGYGRDEVKRNTEIFRGQIIDVTPSLYTVQLAGTSGKLDAFLASIRDVAKIVEVARSGVVGLSRGDKIMR,total protein half-life in vivo,[1],5.652 ± 0.022 h
same,total protein half-life in vivo,[2],6.01 ± 0.31 h
same,total protein half-life in vivo,[3],5.93 ± 0.45 h
same,total protein half-life in vivo,[4],5.9 ± 0.55 h
same,total protein half-life in vivo,[5],5.37 ± 0.21 h
same,total protein half-life in vivo,[6],3.07 ± 0.047 h
same,total protein half-life in vivo,[12],5.93 ± 0.13 h
same,total protein half-life in vivo,[7],10.5 ± 0.55 h
same,total protein half-life in vivo,[8],5.72 ± 0.27 h
same,total protein half-life in vivo,[9],9.51 ± 0.46 h
same,total protein half-life in vivo,[10],5.98 ± 0.1 h
same,total protein half-life in vivo,[11],12.4 ± 0.78 h
MVIGPFINASAVLLGGVLGALLSQRLPERIRVSMTSIFGLASLGIGILLVVKCANLPAMVLATLLGALIGEICLLEKGVNTAVAKAQNLFRHSRKKPAHESFIQNYVAIIVLFCASGTGIFGAMNEGMTGDPSILIAKSFLDFFTAMIFACSLGIAVSVISIPLLIIQLTLAWAAALILPLTTPSMMADFSAVGGLLLLATGLRICGIKMFPVVNMLPALLLAMPLSAAWTAWFA,total protein half-life in vivo,[2],6.45 h
same,total protein half-life in vivo,[9],10.8 h
MTMPTNQCPWRMQVHHITQETPDVWTISLICHDYYPYRAGQYALVSVRNSAETLRAYTISSTPGVSEYITLTVRRIDDGVGSQWLTRDVKRGDYLWLSDAMGEFTCDDKAEDKFLLLAAGCGVTPIMSMRRWLAKNRPQADVRVIYNVRTPQDVIFADEWRNYPVTLVAENNVTEGFIAGRLTRELLAGVPDLASRTVMTCGPAPYMDWVEQEVKALGVTRFFKEKFFTPVAEAATSGLKFTKLQPAREFYAPVGTTLLEALESNNVPVVAACRAGVCGCCKTKVVSGEYTVSSTMTLTDAEIAEGYVLACSCHPQGDLVLA,total protein half-life in vivo,[1],3.27 ± 0.63 h
MGNNLMQTDLSVWGMYQHADIVVKCVMIGLILASVVTWAIFFSKSVEFFNQKRRLKREQQLLAEARSLNQANDIAADFGSKSLSLHLLNEAQNELELSEGSDDNEGIKERTSFRLERRVAAVGRQMGRGNGYLATIGAISPFVGLFGTVWGIMNSFIGIAQTQTTNLAVVAPGIAEALLATAIGLVAAIPAVVIYNVFARQIGGFKAMLGDVAAQVLLLQSRDLDLEASAAAHPVRVAQKLRAG [P0ABU7],total protein half-life in vivo,[1],6.15 ± 0.21 h
same,total protein half-life in vivo,[2],6.38 ± 2.2 h
same,total protein half-life in vivo,[5],1.58 ± 1 h
same,total protein half-life in vivo,[6],1.68 ± 0.17 h
same,total protein half-life in vivo,[12],1.99 h
same,total protein half-life in vivo,[7],3.22 h
same,total protein half-life in vivo,[10],1.38 h
same,total protein half-life in vivo,[11],3.56 h
MELLLLSNSTLPGKAWLEHALPLIAEQLQGRRSAVFIPFAGVTQTWDDYTAKTAAVLAPLGVSVTGIHSVVDPVAAIENAEIVIVGGGNTFQLLKQCRERGLLAPITDVVKRGALYIGWSAGANLACPTIRTTNDMPIVDPQGFDALNLFPLQINPHFTNALPEGHKGETREQRIRELLVVAPELTIIGLPEGNWITVSKGHATLGGPNTTYVFKAGEEAVPLEAGHRF [P0A7C6],total protein half-life in vivo,[1],3.28 h
same,total protein half-life in vivo,[6],3.03 h
same,total protein half-life in vivo,[12],4.93 ± 0.56 h
same,total protein half-life in vivo,[7],9.36 h
same,total protein half-life in vivo,[8],4.73 h
same,total protein half-life in vivo,[9],5.8 h
same,total protein half-life in vivo,[10],5.69 ± 0.077 h
same,total protein half-life in vivo,[11],11.1 ± 0.86 h
MTTSMLNAKLLPTAPSAAVVVVRVVVVVGNAP,total protein half-life in vivo,[1],3.54 h
